These results are taken from patent US11851498B2, “Anti-CD276 antibodies (B7H3)” (THE UNITED STATES OF AMERICA, as represented by THE …, priority 2014, dated 2023).

Entries after “also recorded” stand apart in the source; their conditions may differ. Non-standard residues stand in square brackets, D forms with d. Residues, ends and D or L forms follow the SMILES beside them. *: point of attachment. Dolaproine = CO[C@@H]([C@@H]1CCCN1)[C@@H](C)C(=O)O; Dil = CC[C@H](C)[C@H](NC)[C@@H](CC(=O)O)OC; X1 = C[C@@H](N*)[C@@H](O)c1ccccc1; NMeV = CN[C@H](C(=O)O)C(C)C

For one series, the system named is HEK 293 cells (293). Put plainly: Cell viability of untransduced HEK 293 cells. The note with it: 293 cells (low CD276); various concentrations (nM); FIG. 7. As for the experimental part:
(§1) HEK 293 cells (293) or HEK 293 cells transduced with CD276 (293/CD276) were treated with MMAE alone, m8524 (m276) (SEQ ID NOs: 26 and 27) antibody alone, m825 (irrelevant control antibody)-ADC, or m8524-ADC. The drug of the ADCs was MMAE.

The subject of another series is 293/CD276 cells. Description: Cell viability of HEK 293 cells transduced with CD276. The conditions noted are these: FIG. 7. How it is done: as §1
Series [1] has as its target T1, human CD276 expressed on the surface of HEK 293 cells (293/CD276) (Homo sapiens, UniProt Q5ZPR3).
T1 construct: expressed in transfected cells; host or cells: HEK293 cells
T1 sequence (Q5ZPR3 29-534): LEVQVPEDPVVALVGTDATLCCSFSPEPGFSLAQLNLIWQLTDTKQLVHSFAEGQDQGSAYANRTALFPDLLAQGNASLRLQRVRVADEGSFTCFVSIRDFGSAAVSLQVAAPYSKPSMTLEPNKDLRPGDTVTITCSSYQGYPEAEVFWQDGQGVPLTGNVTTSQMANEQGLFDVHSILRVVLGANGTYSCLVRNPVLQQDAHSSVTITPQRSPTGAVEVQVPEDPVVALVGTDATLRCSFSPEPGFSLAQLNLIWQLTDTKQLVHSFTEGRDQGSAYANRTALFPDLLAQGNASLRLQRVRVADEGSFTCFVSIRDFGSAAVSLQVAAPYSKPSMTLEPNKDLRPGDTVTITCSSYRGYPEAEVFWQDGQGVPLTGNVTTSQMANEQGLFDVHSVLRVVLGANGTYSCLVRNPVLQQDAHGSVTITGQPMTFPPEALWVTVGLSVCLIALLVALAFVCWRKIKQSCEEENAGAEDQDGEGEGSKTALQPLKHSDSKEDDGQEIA
Put plainly: Flow cytometry binding to HEK293 cells transduced with human CD276. The note with it: FITC-labeled IgG1; FIG. 5. Format: cell-based. As for the experimental part:
HEK293 cells were untransduced or transduced to express human CD276. The cells were cultured with FITC-labeled human anti-CD276 antibody m8524 IgG1 (SEQ ID NOs: 26 and 27). The binding of the FITC-labeled human anti-CD276 antibody m8524 IgG1 to human CD276 expressed on the cell surface was measured by flow cytometry.

Series [2] deals with Pan02 pancreatic adenocarcinoma tumors, tumor vasculature and normal tissues. Put plainly: In vivo localization of FITC-labeled antibody after IP injection into Pan02 tumor-bearing mice (immunofluorescence). The conditions noted are these: FITC-labeled IgG1 IP; for localization/staining in tumor (tumor cells and tumor vasculature): co-stain anti-CD31/anti-Meca32. As for the experimental part: CD276 KO mice and CD276 WT mice each bearing Pan02 pancreatic adenocarcinoma tumors were injected (IP) with FITC-labeled 8524 IgG1 (SEQ ID NOs: 26 and 27) and anti-CD31/anti-Meca32. Anti-Meca32 is a monoclonal antibody with specificity for mouse endothelium.
CD276-positive, Pan02 pancreatic adenocarcinoma tumor-bearing, CD276 KO mice were injected (IP) with FITC-labeled 8524 IgG1 (SEQ ID NOs: 26 and 27) (green staining) and anti-CD31/anti-Meca32 (red staining). CD31/Meca32 positive vessels were stained red. Human tumor cells were stained green. Separate photographic images of the green and red staining were taken, and the images of the red and green staining were merged to provide a third image wherein co-localization of red and green staining provided a yellow signal.
CD276-positive, Pan02 pancreatic adenocarcinoma tumor-bearing, CD276 WT mice were injected (IP) with FITC-labeled 8524 IgG1 (SEQ ID NOs: 26 and 27) (green staining) and anti-CD31/anti-Meca32 (red staining). CD31/Meca32 positive vessels were stained red. Human tumor cells were stained green. Separate photographic images of the green and red staining were taken, and the images of the red and green staining were merged to provide a third image wherein co-localization of red and green staining provided a yellow signal.
CD276 KO mice and CD276 WT mice each bearing Pan02 pancreatic adenocarcinoma tumors were injected (IP) with FITC-labeled 8524 IgG1 (SEQ ID NOs: 26 and 27) and anti-CD31/anti-Meca32. CD31/Meca32 positive vessels in the normal liver of both CD276 KO and CD276 WT mice and in the tumor vasculature of CD276 WT mice were stained red. Human tumor cells and tumor vasculature were stained green in the CD276 WT mice. Separate photographic images of the green and red staining in the tumor of CD276 WT mice were taken, and the images of the red and green staining were merged to provide a third image wherein co-localization of red and green staining provided a yellow signal. […] The yellow signal indicated the co-localization of the CD31/Meca32 staining (red) with the CD276 staining (green).
CD276 WT mice bearing Pan02 pancreatic adenocarcinoma tumors were injected (IP) with FITC-labeled 8524 IgG1 (SEQ ID NOs: 26 and 27) and anti-CD31/anti-Meca32. CD31/Meca32 positive vessels in normal tissues, including the brain, heart, intestines, liver, muscle, spleen, and stomach of the CD276 WT mice were stained red. Pan02 tumors served as a positive control for the staining of all normal tissues. CD31/Meca32 positive vessels in the tumor vasculature of CD276 WT mice were also stained red. Human tumor cells and tumor vasculature were stained green in the CD276 WT mice. […]

In series [3] the test system is MC38 (colon cancer) tumor / normal liver margin. Put plainly: Co-immunofluorescence post-staining of intrahepatic MC38 tumors at the normal liver/tumor margin. The note with it: MC38 tumor-bearing WT mice; samples post-stained with FITC-labeled IgG1; FIG. 6B. An excerpt: Samples of the normal liver/tumor margin of MC38 (colon cancer)-tumor bearing, WT mice were post-stained with FITC-labeled human anti-CD276 antibody (m8524 IgG1) (SEQ ID NOs: 26 and 27) (FIG. 6B) or laminin (FIG. 6A). Photographic images were taken.

In series [4] the test system is human CD276-AP fusion protein. Description: ELISA binding assay, human CD276. The note with it: scFv-Fc fusion protein in culture medium, serially diluted; CD276-AP coated at 2 μg/ml; FIG. 1A. As for the experimental part:
(§2) The scFv-encoding inserts of the unique clones were digested with SfiI and ligated into modified pSecTag bearing the same set of SfiI sites and Fc-Avi tag for soluble expression. These constructs were transfected into 293T cells for expression following the manufacturer's protocol. After 72 hr of growth, the scFv-Fc fusion proteins in the culture medium were used for the ELISA binding assay.
(§3) 50 μl of the diluted human (FIG. 1A) or mouse (FIG. 1B) CD276-AP fusion protein in PBS at 2 μg/ml was coated in a 96-well plate at 4° C. overnight. Transiently expressed scFv-Fc fusion protein in the culture medium was serially diluted and added into the target protein coated wells. After washing, a 1:3000 diluted horseradish peroxidase (HRP) conjugated goat anti-human IgG antibody was added for 1 hr at RT. After washing, 3, 3, 5, 5′-Tetramethylbenzidine (TMB) substrate was added, and the optical density (O.D.) was read at 450 nm.

The test system of series [5] is mouse CD276-AP fusion protein. Description: ELISA binding assay, mouse CD276. The conditions noted are these: scFv-Fc fusion protein in culture medium, serially diluted; CD276-AP coated at 2 μg/ml; FIG. 1B. As for the experimental part:
as §2, §3
Background: ELISA stands for enzyme-linked immunosorbent assay.

The mark [6] stands for this setting: CD276 WT mice bearing Pan02 tumors.

mouse CD276-AP fusion protein, sequence (Q8VE98 29-248 limits assumed): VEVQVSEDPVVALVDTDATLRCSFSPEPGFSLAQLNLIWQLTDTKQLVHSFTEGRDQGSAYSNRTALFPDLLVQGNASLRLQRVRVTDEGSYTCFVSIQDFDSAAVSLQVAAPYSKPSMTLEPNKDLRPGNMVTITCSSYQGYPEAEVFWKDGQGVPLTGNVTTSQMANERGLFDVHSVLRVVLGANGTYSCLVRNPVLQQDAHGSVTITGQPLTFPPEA

As to `CC[C@H](C)[C@@H]([C@@H](CC(=O)N1CCC[C@H]1[C@H](OC)[C@@H](C)C(=O)N[C@H](C)[C@@H](O)c1ccccc1)OC)N(C)C(=O)[C@@H](NC(=O)[C@@H](NC)C(C)C)C(C)C` [MMAE, monomethyl auristatin E, reference compound] (H-[NMeV]V[Dil][Dolaproine]-X1), the “cytotoxicity (cell viability, % of control)” value is given as “cytotoxic to all cells” in the series with HEK 293 cells (293) and “cytotoxic to all cells” with 293/CD276 cells (293/CD276 cells (high CD276), various concentrations (nM)). For the same molecule, in the series with 293/CD276 cells (293/CD276 versus 293 cells), the “selectivity for CD276-expressing cells” value was “no selectivity”.

B1: m8524 IgG1: human anti-CD276 antibody m8524 in IgG1 format (SEQ ID NOs: 26 and 27), FITC-labeled (antibody, V domains shown)
VH: QVQLQQSGAEVKKPGSSVKVSCKASGGTFSSYAISWVRQAPGQGLEWMGGIIPILGIANYAQKFQGRVTITADESTSTAYMELSSLRSEDTAVYYCARGGSGSYHMDVWGKGTTVTVSS
VL: EIVLTQSPATLSLSPGERATLSCRASQSVSSYLAWYQQKPGQAPRLLIYDASNRATGIPARFSGSGSGTDFTLTISSLEPEDFAVYYCQQRSNWPPRITFGQGTRLEIK
modifications: FITC label
As to B1, the “binding to CD276-transfected 293 cells as compared to non-transfected parent 293 cells (flow cytometry)” value in series [1] was “increased binding”. Moreover, in series [2] (CD276 WT and CD276 KO mice bearing Pan02 tumors), the “staining of normal liver” value is “not the normal liver”. For the same molecule, in series [2] (setting [6]), the “staining of normal tissues (brain, heart, intestines, liver, muscle, spleen, stomach)” value is “did not stain any of the normal tissues”; the “localization/staining in tumor (tumor cells and tumor vasculature)” value is “co-localization; also recorded: localized to both human tumor cells and tumor vasculature; also recorded: stained tumor cells and tumor vasculature”. Besides, the “localization/staining in tumor (tumor cells and tumor vasculature)” value in series [2] (CD276 WT mice bearing Pan02 tumors, listed as 8524 IgG1) was “stained tumor cells (green) and tumor vasculature”. For the same molecule, the “staining at the normal liver/tumor margin” value in series [3] is “stained tumor cells but not normal tissue”.

B2: m852: anti-CD276 antibody clone, heavy chain comprising SEQ ID NO: 7 and light chain comprising SEQ ID NO: 8 (antibody, V domains shown)
VH: QVQLQQSGAEVKKPGSSVKVSCKASGGTFSSYAISWVRQAPGQGLEWMGGIIPILGIANYAQKFQGRVTITADESTSTAYMELSSLRSEDTAVYYCARGRRSGSYYMGYWGQGTLVTVSS
VL: EIVLTQSPATLSLSPGERATLSCRASQSVSSNLAWYQQKPGQAPRLLIYDTSTRATGIPARFSGSGSGTEFTLTISSLQSEDFAVYYCQQYNNWPPAYTFGQGTKLEIK
Consider B2, for which the “binding to human CD276 (OD at 450 nm, ELISA)” value in series [4] is listed as “bound”. Further, the “binding to mouse CD276 (OD at 450 nm, ELISA)” value in series [5] was “bound”.

B3: m857: anti-CD276 antibody clone, heavy chain comprising SEQ ID NO: 17 and light chain comprising SEQ ID NO: 18 (antibody, V domains shown)
VH: QVQLQQSGAEVKKPGSSVKVSCKASGGTFSSYAISWVRQAPGQGLEWMGGIIPILGIANYAQKFQGRVTITADESTSTAYMELSSLRSEDTAVYYCATGGSGSYAFDIWGQGTMVTVSS
VL: EIVLTQSPATLSLSPGERATLSCRASQSVSSYLAWYQQKPGQAPRLLIYDASNRATGIPARFSGSGSGTDFTLTISSLEPEDFAVYYCQQRSNWPPSYTFGQGTKLEIK
Consider B3, for which the “binding to human CD276 (OD at 450 nm, ELISA)” value in series [4] is reported as “bound”. Moreover, the “binding to mouse CD276 (OD at 450 nm, ELISA)” value in series [5] is listed as “bound”.
